In a protein production outcome set (Wang et al. 2014):

Test: label from the status in PepcDB records

Sequence | protein production
HMARSLYPLGVSRSLPPYRRTFNHQTFIFVKSILRLGVSMEEEEFDIREALANGEHLEKILIMAKYDESVLKKLIELLDDDLWTVVKNAISIIMVIAKTREDLYEPMLKKLFSLLKKSEAIPLTQEIAKAFGQMAKEKPELVKSMIPVLFANYRIGDEKTKINVSYALEEIAKANPMLMASIVRDFMSMLSSKNREDKLTALNFIEAMGENSFKYVNPFLPRIINLLHDGDEIVRASAVEALVHLATLNDKLRKVVIKRLEELNDTSSLVNKTVKEGISRLLLLEGHSSS | not failed
INRRRDSKQMTEHNLSVVNTATLYIVPTPIGNLGDITQRAIEVLKSVDLIAAEDTRHTGKLLSHFGIASQTFALHDHNEQHKADLLISKLQQGLSIALVSDAGTPLISDPGYHLVNRCRQANVNVVPLPGA | failed
MASTYYELLGVSKYASEADIKKAFKDLAKKYHPDKHPGEAFYEEHFKKINEAYQILSDKQARQNYDFRLQYGQHAQQSRPAQNQQRAYQRPTATYQQPKYRRPKPAASGTSAYQKKLNTYYISIAIGAVVFIFACYWFYSFMNTYSSKKYFNEGLKAESRGNDMQALSFYFSALEINLKNPEVNEKIGDLYSKFATNSSYDLFYYDLELQKNFQDPDFDATSIELLKKTRNVDSLAALYYKRSFENFEMPVDKRRVGLKSIKACLKTGDYKQAADNLYKVSFLPDYKRDDSVLYYRGDVIFQTRFYDQARDNYRKFLALHPTSAEASVKIAVCHYNEHNEDYALAQLAKTIKRFPANGEAYYFLGQIHLRNNDTLKACSNFYKADSLHVLAAKPSLYKYCRN | failed
MQVTFHPRACRFLKTRKAEKPNNEPLYASTSNRETIGDTGMSNPWIAIGALAVVALAIPLTMMAVSSLLRPSVPEQGKRTTYESGEVPTGSSRQIKFNIQYYMVALLFVVFDIETVFIFPWTVIYSDAAAELGMTTALLPMVVFITILAIGLGWAWRNGAVQWVRSPRATKGADTYE | failed
MRLEKGMPLKRQIRLKTAIILPFVLTFLFMILAMAAVQTYRYEQTVKELSSKKLSYLTDSISQRLSDFLNRPFFANQMIAYNVGFHHLYQLNDVSRIEDFIRAAANPIGNNIQQIDVVGFGGVNGEYVGLRRDAPEQYSLMLKDARTDDKLVIYQTATKNDQLRTVIDNYDPRVRPWFAPVAQKPSPQWSSVYTNMDEKQEITLSALSPVFQDKRFIGVMVSDVKLNTFNQFLSELKQRMNADVYVMDKQHRLIAHSGEGSVVSWGTPLSPKGERLFASENRNPIIRSSAEQLDLQGLNVGTFTTYVNQQRYFNQASAFTDQYGLTWYISVSIAEGDLLGSLPENQKTSWAIGLLVSLVGLGLGLMALNRVANPIISTASAARQLANGDWTASMPKPGKIYETSLLVQAFIEMTNSLKASFKALRSQLVYDSLTQLLSREGLVEHCHQIPQLNGGLILIGIDKFRDINDSLGHHQADQLLVAIAQRLKVTFPEPALIARIGGDEFAIYLPDVNQQDDLKSVATDILKLFASPFSMPSDNIAVNVSIGIVYLEEPNMTVWLRNGSIALSNAKAEHTHISFYSPEMANASRKRMLMVTQIKLALDNQEFVPFYQPIVDLNSGEVLGAEALARWISPEFGLIPPMDFIPIAEESGLINAIGEQILRQACADTVRGIAENKWPSTFHMHVNLSVNQLSHPDFIAQLHSVLDESGLQPTNLTLEITESRIVDNDPVILHNMLELKKARIHIAIDDFGTGYSSLAYLHKLPFDCLKIDREFVSQLNAYNIENSVVAAIVNMTRGFKVELVAEGIETQEQVDLLNQLGCPRGQGFLFSKPMAYQDWPTDLVNMKQS | failed
MNGRMSLFLRNSIGVMAAMLAGVATPVANAMDNSLASGVVRFALDTGEASSVVGLAMKLEGESADYLQARLMLASGQHDEARAGFEGVFNGASHRGEAALALAEMAQEDGDLTGAENWYQQARRTGYGEVAQKALLGLAELVRIQGKTDAAGQYLARMEDGYWAAVGYMNLAADFARDDLDSSRALVSLRVAMAMAAKDTDTSRSRALLDQLNLRAGYLALGSDDYDKAIDFLEKVSLESYHTPQALYLHGLALSSKGNHRAAMQSWHRAKKFPLAFPGVSDAWIGMGRGYDLSGYPGQAGESWLAANAAYEGERVTLGKLSERITAEGAYKALVQDARSDDIQWFLADNRTLTQPRMAYLLRFMEEPGAQVAVRRVARLDEMVATLDASKYNLEVFIQALEVFMASAGSGGVAPQTAGLEQQQSDLESRLNGLVEQAATPAQVAELRQLKQSLAGAGRRMGALNQQVVQRPERLETVLDDAGALRDATKDLRYKTLSLREQAARELDALALAFVKKQTQRMTHALDKTEQQIAHLYEYLALENLGEGAQ | failed
MRHDIRAPETFRRYCLPSRPRGCPLKTYVIGDVHGRADLLKALPSHIEENDPNGCGYRVIFLGDIIDRGPDSMKAMEMVVRELNQNPESRLILGNHEEFMLLFLDRPDKREIVFDHWMRNGGLAAAASYGLNVGGRYGRIEEAHESLLELLHRRQNHIDAMRRAASLINDGANVFVHAGLRPGVPFEQQTTKDLRTIRSGFLDNDFDFGAMVVHGHTVTSSGLPEIRRSRIALDTGAGAGGCLSMMMVDDDGARTFFQSGSAREVVKVELSQRPDEP | failed
MSIKILSESEIKQVANSYQAPAVLFANPKNLYQRRAKRLRDLAQNHPLSDYLLFAADIVESQLSTLEKNPLPPQQLEQLNTIEPLNAKTFKRNSIWREYLTEILDEIKPKANEQIAATIEFLEKASSAELEEMANKLLAQEFNLVSSDKAVFIWAALSLYWLQAAQQIPHNSQVENAENLHHCPVCGSLPVASMVQIGTSQGLRYLHCNLCESEWNLVRAQCTNCNSHDKLEMWSLNEELALVRAETCGSCESYLKMMFQEKDPYVEPVADDLASIFLDIEMEEKGFARSGLNPFIFPAEEA | failed
PMEDEPTSKKLKTEDSLMPEEEFLRRNKGPVSIKVQVPNMQDKTEWKLNGQVLVFTLPLTDQVSVIKVKIHEATGMPAGKQKLQYEGIFIKDSNSLAYYNMANGAVIHLALKERGGRKK | failed
SDMVAQALELSRKPHVVIATPGRLADHLRSSNTFSIKKIRFLVMDEADRLLEQGCTDFTVDLEAILAAVPARRQTLLFSATLTDTLRELQGLATNQPFFWEAQAPVSTVEQLDQRYLLVPEKVKDAYLVHLIQRFQDEHEDWSIIIFTNTCKTCQILCMMLRKFSFPTVALHSMMKQKERFAALAKFKSSIYRILIATDVASRGADQPPLPPGAWTSLRYRWSSTTTPPGSPRSTSTESAGRPVQGGRVRPSRW | not failed
MKPRKKSVQPIGLKDITIVDDAKMKKAITAAALGNAMEWFDFGVYGFVAYALGKVFFPNADPSVQMIAALATFSVPFLIRPLGGLFFGALGDRFGRQKILAATIVIMSLSTFAIGLIPSYASIGIWAPILLLLAKMAQGFSVGGEYTGASIFVAEYAPDRKRGFLGSWLDFGSIAGFVLGAGVVVLISTVLGEEKFLDWGWRLPFFLALPLGIIGLYLRHALEETPAFQQHVDKLEQGDREGLASGPKVSFKEVATQHWRSLVTCIGVVIATNVTYYMLLTYMPSYLSHNLHYSEDHGVLIIIAIMVGMLFVQPIIGLLSDKFGRRPFIIVGSVGLLALAIPAFMLINSGVLGLIFAGLLIIAVLLNFFIGVMASTLPAMFPTHIRYSALASAFNISVLIAGLTPTLAAWLVETTNDLYMPAYYLMVIAAVGLVTGLTMKETANKPLRGAAPAASDIEEARELLQEHHDNIEQKIEDIDAQIAELEAKREKLALQHPRIE | not failed
MDEKKIPRSLQAIIAQVKAHYADDQELQTLFEQCFLNTYLTTIQEDEQGTFVVTGDIPAMWLRDSSAQVRPYLTVVKEDADMARMIKGVIERQWRYILHDPYANAFNQTANKQGHQQDRTEMSPLVWERKYELDSLCYPIQLAYLYWKATGDDSVLQPTLKQVLETIYRIWKIEQDHEAKSSYSFERDDCRVSDTLLRKGKGGYSVPTGMTWSGFRPSDDACLYGYLIPANMFAVVVSNYAVELLTAMEEIKLAEEFRELEADIRQGIGQYGKMDHPVYGEIYVYETDGNGRVNLMDDANVPSLLAIPYLGYTTADDPVYQNTRRFILSRDNPYYYEGSYAKGVGSPHTPDHYVWHISLAIQGMTAIDSKEKKQIVAMFKQTHADTYFMHEGFDVDRPEQYTRSWFAWANSMFSEFLLSEAGIYVPGSPLENMKNNKAGDRHVLSTGKAAKPNQ | failed
MKLEKLIPWLAGGLAVVGAAIAVIPPSPVRGFDTDAFGRLPVLEGGRVKPVDSVSRNALLMIRGQQSFRYDPDGDGPQKGRTISSDEWILDVLFRPELADQYPVFVINDPEVLGLMGMRQSSNRYFAFSALVPHLEEIQKQAMAAHQVDAKQRTRFQSAIANLFERVYLYYRLKNTVQLAGSPGLAAEVASAGTPGAQQRHQAIEELAYFRPIPPAAGTTGDDWLNMGQALRGAASGQVGDALSGWARLSVAYMAQDPSSFGRAVADVTAADAAARPDSIDLAGHEIVFNRAQPFYAGMVVYVLAMLALFASWLWKPKILQPAAYGLLVAGALIHTLGLVSRVLLQGRPPVTNLYSSAVFVGWGAVVLGVILERIYRKGFATAVAAASGFASLIVAHHLSGDGDTMEMMRAVLDSNFWLATHVVTITIGYSGTFLAGAMAIGYTLRKHLVRKPDPGTTKALMGMTYGVICFALFFSFLGTVLGGIWADQSWGRFWGWDPKENGALLIVLWNAIILHARWGGFVRERGIMAMAIFGNVITSLSWFGVNMLGVGLHSYGFMDSAFWALTGFIASQLAIMAFTLLPAQFWRTAHAAGKQQEPSPEPGH | failed
MYFFVPTANSKINQMIFYLSSMNLDMIKEYILSFGIWAPITSFLLMVLQSVIAPIPAFLITLSNAAIFGWVKGAILSWSSAMAGAALCFYIARGLGRDAVEKLTSKFALKDIDGFFEKYGKHTILIARLLPFISFDLVSYAAGLTSMNFWSFFIATGIGQLPATIVYSYVGGMLTGGAQLLMSGLLILFALSIAIYVGKKVWNEKRGKNDK | failed
MWSSREIEDLGLTFAIAIDKGKETNTEKELKEEGGSYPKKDNITLTYQFVNEKAAGAGTSGGGGSGQGAQKAYINISETGDSLQQIGSEVALRRDREVFSPHLKVVVMSEDVLHTFPIDEMLDQFFRDNEIRLSCLVLSAKGEARDALQLKENGEIPAFRLIGLGENEHKVSRILPPMTLAKLIGKLHSGSSFLLQNVVAANGAVKYSGAAVINGKSKKMIGTLNEYETEGITWIRGEGKGGVVKSHDKKSQQTLAYDINKIKSRIQPIVKGKDISFHVDIESEGDLVENWNTKEALDTQFIDRLETTIENEVKKIVGQVLKKIQHDYKADVAGFDESFRLTYPHLWKRVKNNWDDTFSKADITYSVNVTITHFGTVKTQLEHHHHHH | not failed
SPFIRANTAWLGHLEFAYDLVRFEKPEILVELGTHMGASFFSFCQGVKDGGLATKCFAVDTWTGDGHTGPYGEGVFHIVDKVVKTSYPNIGNLIKSTFDEAVDQFQDGTINLLHIDGYHTYEAVSHDYKTWLPKLADNGIVLFHDIEVKDRNFGVYKFWDEVKAKYPHFQFQHSYGLGVLFPKGCSDRFKEILKNKEEIQDMYK | failed
MSHAKGFKKDYYGGTLMALVGLAAVMAGLQYHTGSLSHMGPGFFPVAVGALLAFVGVLIAVSARNDEPKEDKPSGHGHSHAAPDLRGTVCIVLGTLAFLLFGKYGGMIPATFAIVFISALGDRSNSIKQAFLLSIAMCVIAAVVFSWALQLQLPMFTWGA | failed
MHIRRDQYMNEYVWETCEELDKKIADRVRLIRKRRSISQEKLSKISNVSLGSIKRFETTGQISLLSLTKIAVALNIADDLRNIFTEIPYNSIEEVINERR | not failed
